Assay results taken from the supplement of paper PMC7125110.
± gives the standard error. For some assays here: This sample holds only a part of the variants without activity.

B1: glmS ribozyme (parent)
chain: AUAAAAGCGCCAGAACUACAGAAAUGUAGUUGACGAGGAGGAGGUUUAUCGAAUUUUCGGCGGAUGCCUCCAAA

Tests used:
Settings in all cases: with glucosamine-6-phosphate
[1] = variants of: B1; test: kcat; higher = faster cleavage; RNA array
Summary of the method: (§1)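 Tracking of barcoded ribozyme variants used a hybridised Cy3 probe at 37 °C, after in situ transcription by E. coli RNA polymerase on sequenced MiSeq chips. The flowed solution held 40 μM to 10 mM glucosamine-6-phosphate in HEPES/KCl/Mg(OAc)2 buffer, and imaging ran over ~14 h. kobs was taken from exponential decay fits of normalised per-tile medians, and kcat and KM from weighted Michaelis–Menten fits.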

[2] = variants of: B1; test: KM; higher = weaker cofactor use; RNA array
Summary of the method: as §1

[3] = variants of: B1; test: self-cleavage kobs at 40 uM GlcN6P; higher = faster cleavage; RNA array
Summary of the method: as §1

[4] = variants of: B1; test: self-cleavage kobs at 160 uM GlcN6P; higher = faster cleavage; RNA array
Summary of the method: as §1

[5] = variants of: B1; test: self-cleavage kobs at 640 uM GlcN6P; higher = faster cleavage; RNA array
Summary of the method: as §1

[6] = variants of: B1; test: self-cleavage kobs at 2500 uM GlcN6P; higher = faster cleavage; RNA array
Summary of the method: as §1

[7] = variants of: B1; test: self-cleavage kobs at 10000 uM GlcN6P; higher = faster cleavage; RNA array
Summary of the method: as §1

| Variant | kcat [1] | KM [2] | self-cleavage kobs at 40 uM GlcN6P [3] | self-cleavage kobs at 160 uM GlcN6P [4] | self-cleavage kobs at 640 uM GlcN6P [5] | self-cleavage kobs at 2500 uM GlcN6P [6] | self-cleavage kobs at 10000 uM GlcN6P [7] |
| --- | --- | --- | --- | --- | --- | --- | --- |
| G40C A42G | 0.00319 ± 0.00048 s⁻¹ | 1060 ± 250 µM | 0.000131 ± 2.4e-05 s⁻¹ | 0.000438 ± 0.00016 s⁻¹ | 0.000898 ± 0.00025 s⁻¹ | 0.0025 ± 0.0006 s⁻¹ | 0.00299 ± 0.00053 s⁻¹ |
| G38U G66C C71U | 1.04e-05 ± 1e-06 s⁻¹ | – | – | – | – | – | – |
| G37C C70G | 1.47e-05 ± 4.3e-06 s⁻¹ | – | – | – | – | – | – |
| G37A U47G | 0.000419 ± 0.0001 s⁻¹ | 1250 ± 600 µM | – | 9.69e-05 ± 1.9e-05 s⁻¹ | 0.000127 ± 1.6e-05 s⁻¹ | 0.000274 ± 4.4e-05 s⁻¹ | 0.000396 ± 5.4e-05 s⁻¹ |
| A39G U56C | 0.00799 ± 0.002 s⁻¹ | 3240 ± 1100 µM | 0.000109 ± 1.2e-05 s⁻¹ | 0.000656 ± 0.00018 s⁻¹ | 0.00106 ± 0.00014 s⁻¹ | 0.0039 ± 0.00058 s⁻¹ | 0.00611 ± 0.00076 s⁻¹ |
| G38C G51C | 1.04e-05 ± 4.5e-06 s⁻¹ | – | – | – | – | – | – |
| G38A U55C | < 1e-05 s⁻¹ | 37.7 ± 15 µM | – | – | – | – | – |
| G38A U45A | < 1e-05 s⁻¹ | – | – | – | < 1e-05 s⁻¹ | – | – |
| G40U C67U | 7.51e-05 ± 5.3e-06 s⁻¹ | 1470 ± 410 µM | < 1e-05 s⁻¹ | – | 2.67e-05 ± 8.3e-06 s⁻¹ | 4.31e-05 ± 8.2e-06 s⁻¹ | 6.64e-05 ± 6e-06 s⁻¹ |
| A39G C50A | 3.27e-05 ± 5.7e-06 s⁻¹ | – | – | – | – | – | – |
| A39U A42U U55G G66U | 0.000223 ± 7.5e-06 s⁻¹ | 1100 ± 96 µM | – | – | 8.2e-05 ± 2.5e-05 s⁻¹ | 0.000166 ± 5.4e-05 s⁻¹ | 0.000198 ± 3.5e-05 s⁻¹ |
| A39C A52G | 0.000297 ± 5.1e-05 s⁻¹ | 2850 ± 940 µM | – | – | 4.74e-05 ± 8.3e-06 s⁻¹ | 0.00017 ± 2.1e-05 s⁻¹ | 0.000217 ± 2.6e-05 s⁻¹ |
| A39G A53U | 0.0202 ± 0.0043 s⁻¹ | 805 ± 260 µM | 0.00108 ± 0.00016 s⁻¹ | 0.00271 ± 0.00057 s⁻¹ | 0.0101 ± 0.0016 s⁻¹ | 0.0119 ± 0.0027 s⁻¹ | 0.0229 ± 0.0041 s⁻¹ |
| A39C U47G | 0.00107 ± 0.00043 s⁻¹ | – | – | – | 0.000286 ± 5.5e-05 s⁻¹ | 0.000425 ± 0.0001 s⁻¹ | 0.00109 ± 0.0002 s⁻¹ |
| G38A G51U | < 1e-05 s⁻¹ | – | < 1e-05 s⁻¹ | – | < 1e-05 s⁻¹ | – | < 1e-05 s⁻¹ |
| A39C U56A | 0.00331 ± 0.00086 s⁻¹ | 4000 ± 1500 µM | 5.87e-05 ± 1.3e-05 s⁻¹ | 0.000129 ± 3.6e-05 s⁻¹ | 0.000412 ± 5.2e-05 s⁻¹ | 0.00133 ± 0.00019 s⁻¹ | 0.00238 ± 0.00034 s⁻¹ |
| G40A C68U | 5.12e-05 ± 6.5e-06 s⁻¹ | – | < 1e-05 s⁻¹ | – | – | 4.58e-05 ± 1e-05 s⁻¹ | 4.59e-05 ± 5.4e-06 s⁻¹ |

| Variant | kcat [1] | KM [2] | self-cleavage kobs at 40 uM GlcN6P [3] | self-cleavage kobs at 160 uM GlcN6P [4] | self-cleavage kobs at 640 uM GlcN6P [5] | self-cleavage kobs at 2500 uM GlcN6P [6] | self-cleavage kobs at 10000 uM GlcN6P [7] |
| --- | --- | --- | --- | --- | --- | --- | --- |
| G40U U47C | 0.00133 ± 0.00022 s⁻¹ | 2010 ± 550 µM | 3.24e-05 ± 8.9e-06 s⁻¹ | 0.000104 ± 2.3e-05 s⁻¹ | 0.000287 ± 3.6e-05 s⁻¹ | 0.000958 ± 0.00014 s⁻¹ | 0.00106 ± 0.00013 s⁻¹ |
| A39C C67U | 0.000495 ± 9.5e-05 s⁻¹ | 1150 ± 400 µM | 3.13e-05 ± 7.5e-06 s⁻¹ | 7.1e-05 ± 8.8e-06 s⁻¹ | 0.000154 ± 1.3e-05 s⁻¹ | 0.000377 ± 3.5e-05 s⁻¹ | 0.000443 ± 5.1e-05 s⁻¹ |
| A39U U55A | 0.0539 ± 0.0098 s⁻¹ | 5710 ± 1200 µM | 0.000396 ± 9.4e-05 s⁻¹ | 0.00146 ± 0.00024 s⁻¹ | 0.00564 ± 0.001 s⁻¹ | 0.0142 ± 0.0033 s⁻¹ | 0.0376 ± 0.0091 s⁻¹ |
| A39C C58A | 0.000217 ± 9.9e-05 s⁻¹ | – | < 1e-05 s⁻¹ | – | – | – | 5.19e-05 ± 9.6e-06 s⁻¹ |
| A39U A53U | 0.0113 ± 0.0033 s⁻¹ | 1260 ± 530 µM | 0.000461 ± 5e-05 s⁻¹ | 0.000985 ± 0.00016 s⁻¹ | 0.00368 ± 0.00054 s⁻¹ | 0.00619 ± 0.001 s⁻¹ | 0.0126 ± 0.0017 s⁻¹ |
| A39G U57C | 0.000566 ± 0.0002 s⁻¹ | – | < 1e-05 s⁻¹ | – | 5.87e-05 ± 1.5e-05 s⁻¹ | 0.00013 ± 2.3e-05 s⁻¹ | 0.000351 ± 6.4e-05 s⁻¹ |
| A39G C58U | 7.06e-05 ± 1.1e-06 s⁻¹ | 2990 ± 150 µM | < 1e-05 s⁻¹ | – | – | 3.24e-05 ± 1.1e-05 s⁻¹ | 5.43e-05 ± 8.5e-06 s⁻¹ |
| A39G C58G | 0.000195 ± 2.9e-05 s⁻¹ | 3340 ± 1100 µM | – | – | 3.89e-05 ± 1.2e-05 s⁻¹ | 7.24e-05 ± 1.7e-05 s⁻¹ | 0.000151 ± 2.3e-05 s⁻¹ |
| G40A G41A | 0.000106 ± 2.5e-05 s⁻¹ | – | – | – | 6.83e-05 ± 1.2e-05 s⁻¹ | 0.000163 ± 2.3e-05 s⁻¹ | 8.89e-05 ± 1e-05 s⁻¹ |
| A39C A64C | 4.47e-05 ± 2.7e-06 s⁻¹ | – | – | < 1e-05 s⁻¹ | – | 4.35e-05 ± 1.6e-05 s⁻¹ | 4.27e-05 ± 1.3e-05 s⁻¹ |
| G37U U49A C61G C70G | 2.13e-05 ± 6.5e-06 s⁻¹ | – | – | – | – | – | – |
| G40U A48G | 8.97e-05 ± 4.3e-05 s⁻¹ | – | < 1e-05 s⁻¹ | – | – | – | 3.18e-05 ± 8.1e-06 s⁻¹ |
| A39U A48G | 0.000105 ± 2.3e-05 s⁻¹ | – | < 1e-05 s⁻¹ | < 1e-05 s⁻¹ | – | 6.61e-05 ± 1.5e-05 s⁻¹ | 8.13e-05 ± 1.5e-05 s⁻¹ |
| A39U A48U | 0.000306 ± 1.3e-05 s⁻¹ | 1710 ± 170 µM | – | – | 8.14e-05 ± 9.1e-06 s⁻¹ | 0.000201 ± 2.9e-05 s⁻¹ | 0.000257 ± 2.2e-05 s⁻¹ |
| G40A G66C | 0.000903 ± 0.00019 s⁻¹ | 2220 ± 740 µM | 3.77e-05 ± 1.3e-05 s⁻¹ | 6.89e-05 ± 1.1e-05 s⁻¹ | 0.000166 ± 3.2e-05 s⁻¹ | 0.00045 ± 8.6e-05 s⁻¹ | 0.000774 ± 9.9e-05 s⁻¹ |
| G38U C67G | 1.53e-05 ± 7.3e-06 s⁻¹ | – | – | – | – | – | – |
